Data published in PMC3594540 (Nature structural & molecular biology, 2013).
Positions count from the first letter of the chain named.

Legend:
[1] = target: T1, PLCβ3 L876A EEE (human, UniProt Q01970); assay: cell-based or functional assay
T1 chain: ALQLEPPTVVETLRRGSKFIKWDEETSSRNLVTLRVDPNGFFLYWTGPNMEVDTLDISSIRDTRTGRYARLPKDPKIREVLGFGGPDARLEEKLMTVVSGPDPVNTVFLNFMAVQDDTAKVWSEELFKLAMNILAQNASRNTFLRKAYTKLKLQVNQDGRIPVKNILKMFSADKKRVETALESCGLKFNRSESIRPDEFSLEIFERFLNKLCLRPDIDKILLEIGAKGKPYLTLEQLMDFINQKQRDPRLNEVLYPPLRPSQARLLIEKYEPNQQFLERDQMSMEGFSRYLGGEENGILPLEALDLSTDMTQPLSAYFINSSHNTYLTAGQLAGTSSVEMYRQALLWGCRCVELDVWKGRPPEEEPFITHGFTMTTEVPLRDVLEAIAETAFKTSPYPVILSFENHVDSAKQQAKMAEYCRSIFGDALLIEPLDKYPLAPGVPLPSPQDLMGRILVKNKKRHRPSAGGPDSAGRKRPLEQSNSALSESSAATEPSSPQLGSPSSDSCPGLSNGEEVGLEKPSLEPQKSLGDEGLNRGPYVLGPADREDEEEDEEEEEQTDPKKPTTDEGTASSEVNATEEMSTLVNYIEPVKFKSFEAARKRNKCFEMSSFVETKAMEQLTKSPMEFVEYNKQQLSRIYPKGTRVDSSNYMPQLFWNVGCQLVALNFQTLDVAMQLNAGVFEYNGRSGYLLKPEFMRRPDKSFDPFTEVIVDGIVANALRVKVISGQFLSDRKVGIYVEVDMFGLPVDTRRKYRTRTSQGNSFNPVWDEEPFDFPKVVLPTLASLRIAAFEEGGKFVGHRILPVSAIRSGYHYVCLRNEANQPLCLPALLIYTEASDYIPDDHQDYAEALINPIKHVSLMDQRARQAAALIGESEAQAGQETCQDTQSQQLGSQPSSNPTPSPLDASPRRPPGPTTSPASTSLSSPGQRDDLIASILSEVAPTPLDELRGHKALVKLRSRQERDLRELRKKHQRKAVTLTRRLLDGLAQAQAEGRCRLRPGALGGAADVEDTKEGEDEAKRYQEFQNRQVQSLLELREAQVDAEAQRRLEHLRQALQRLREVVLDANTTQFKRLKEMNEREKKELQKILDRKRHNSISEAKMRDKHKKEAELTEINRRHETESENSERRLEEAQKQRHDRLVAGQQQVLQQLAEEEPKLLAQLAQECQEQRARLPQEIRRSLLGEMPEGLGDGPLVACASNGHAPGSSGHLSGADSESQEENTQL

[2] = target: T2, PLCβ3 T652E (human, UniProt Q01970); assay: cell-based or functional assay
T2 chain: T1 chain with T643E, A867L, E1120I, E1124V, E1127I

B1: murine Gαq (residues 7–359), biotinylated for bead binding (natural protein)
chain: MACCLSEEAKEARRINDEIERQLRRDKRDARRELKLLLLGTGESGKSTFIKQMRIIHGSGYSDEDKRGFTKLVYQNIFTAMQAMIRAMDTLKIPYKYEHNKAHAQLVREVDVEKVSAFENPYVDAIKSLWNDPGIQECYDRRREYQLSDSTKYYLNDLDRVADPSYLPTQQDVLRVRVPTTGIIEYPFDLQSVIFRMVDVGGQRSERRKWIHCFENVTSIMFLVALSEYDQVLVESDNENRMEESKALFRTIITYPWFQNSSVILFLNKKDLLEEKIMYSHLVDYFPEYDGPQRDAQAAREFILKMFVDLNPDSDKIIYSHFTCATDTENIRFVFAAVKDTILQLNLKEYNLV
[1]
  EC50 of Gαq-stimulated PIP2 hydrolysis ([3H]-IP3 release from liposomes): 32 nM
  Max specific activity of Gαq-stimulated PIP2 hydrolysis (liposomes): 3900 nmol IP3/min/nmol PLCβ3
[2]
  EC50 of Gαq-stimulated PIP2 hydrolysis ([3H]-IP3 release from liposomes): 1150 nM
